Source: patent US9011845B2, “Methods for treatment of inflammatory and infectious viral diseases” (priority 2012, dated 2015)

Tests used:
[1] = test system: acyclovir resistant mutant HSV; test: Cell cultures infected with acyclovir resistant mutant HSV: infectious HSV yield; type: cell-based; details: two different drug resistant mutant HSV viruses
Description: FIG. 8A is a bar graph showing infectious HSV yield for cell cultures infected with an acyclovir resistant mutant HSV, according to an example embodiment of the present invention.
FIG. 8B is a bar graph showing infectious HSV yield for cell cultures infected with a different acyclovir resistant mutant HSV, according to an example embodiment of the present invention.
(§1) In another exemplary embodiment, the present disclosure may be employed to treat pathogenic infections of the eye (e.g., herpes simplex virus types 1 and 2 (HSV-1 and HSV-2) and Adenovirus infections). Embodiments may be used as a treatment against wild-type and/or drug resistant herpes simplex virus (HSV) replication and/or transmission, as well as HSV-mediated inflammation-associated ocular disease.

HSV-1 [2] = test: In vivo rabbit eye model of HSV infection; details: for dendritic or geographic ulceration and clinical appearance: vs controls (PBS or peg-BSA)
Description: FIG. 10 is line graph showing viral production in a rabbit eye model for eyes infected with HSV-1 and treated with controls (peg-BSA and PBS), 1% triflourothymidine, or peg-Arginase I, according to an example embodiment of the present invention.
FIG. 11 is a series of images of rabbit eyes infected with HSV-1 and treated with controls (peg-BSA or PBS), 1% triflourothymidine, or peg-Arginase I, according to an example embodiment of the present invention.
In an in vivo rabbit eye model system, the ability of peg-Arginase I to prevent HSV-mediated inflammation-associated disease was assessed relative to a commonly prescribed ophthalmic antiviral-1% triflourothymidine (TFT). Rabbit eyes were infected with HSV, and infection and disease were allowed to establish prior to beginning treatment. […] FIG. 11 depicts representative overall clinical presentation of ocular herpetic disease. In either of the control (PBS or peg-BSA) treatment groups, severe blinding disease was observed following infection, with presence of severe inflammatory discharge and blinding epithelial defects observed by slit lamp examination.

Adenovirus Type 5 = Adenovirus Type 5 pink-eye clinical disease rabbit eye model; type: in vivo; details: treatment initiated eight hours after infection; four times daily
Experimental: FIG. 19 is a series of images of rabbit eyes with an Adenoviral infection and treated with control (peg-BSA), cidofovir, or peg-Arginase I drops, according to an example embodiment of the present invention.
In an in vivo rabbit eye model system, the ability of peg-Arginase I to prevent inflammation-associated disease following Adenoviral infection was examined. Rabbit eyes were infected with Adenovirus and eight hours later treatment was initiated. Eyes were treated four times daily with 10 U peg-Arginase I per 50 μl dose. […] FIGS. 20 through 24 illustrate that peg-Arginase I suppresses clinical presentation of disease at all treatment days, including suppression of ocular inflammation and neovascularization. […] These properties of peg-Arginase I illustrate the present invention's utility in preventing numerous vision-threatening ocular diseases that present clinically as inflammation or neovascularization of the eye.

[3] = test system: VEGF-mediated corneal vascularization; test: VEGF pellet corneal micropocket rabbit eye model; type: in vivo; details: 10 U per 50 μl drop 4 times daily
Experimental: FIG. 26A is a pair of images of rabbit eyes having a VEGF pellet surgically implanted into a corneal micropocket and treated with vehicle or peg-Arginase I, according to an example embodiment of the present invention.
In an in vivo rabbit eye model system, the ability of peg-Arginase I to prevent VEGF-mediated corneal vascularization was assessed by implanting slow release VEGF pellets within a corneal micropocket 3 mm from the corneal limbus. Eyes were subsequently treated with either peg-Arginase I (right, OD eye) or peg-BSA vehicle control (left, OS eye) 4 times daily at a dose of 10 U per 50 μl drop. […] As shown, peg-Arginase I inhibits vision-threatening corneal vascularization, further enabling peg-Arginase I to prevent and ameliorate vision-threatening aspects of many ocular diseases. Moreover, inhibition of vascularization assists in suppressing deleterious inflammatory responses.

Adenovirus = test: Cell cultures infected with Adenovirus: cytopathic effects; type: cell-based
Description: FIG. 18 is a pair of images of cell cultures infected with Adenovirus and treated with control (peg-BSA) or peg-Arginase I drops, according to an example embodiment of the present invention.
In another exemplary embodiment, the present disclosure may be employed to treat other inflammation-associated ocular diseases, such as those induced by Adenovirus infection. Clinical presentation following Adenoviral infection of the eye may proceed even when antiviral compounds, such as cidofovir, are present. Clinical presentation of Adenovirus-associated ocular disease may be due to uncontrolled inflammatory responses to the infection even following viral clearance.

HSV-1 [4] = test: Replication of HSV-1 in primary corneal epithelial cell cultures; type: cell-based; details: primary human corneal epithelial cells
Description: FIG. 9 is a bar graph showing replication of HSV-1 in primary corneal epithelial cell cultures treated with vehicle or peg-Arginase I, according to an example embodiment of the present invention.
as §1

[5] = test system: VEGF-mediated migration of primary vascular endothelial cells; test: Endothelial cell migration in a scratch wound healing model; type: cell-based; details: twenty-four hour period
Description: FIG. 25A is a series of images comparing effects of treatment with either control (peg-BSA) or peg-Arginase I on endothelial cell migration in a scratch wound healing model, according to an example embodiment of the present invention.
FIG. 25B is a bar graph showing a percentage of unhealed wound area after a twenty-four hour period for the wounds shown in FIG. 25A.
In another exemplary embodiment, the present disclosure may be employed to prevent and resolve corneal neovascularization and vascularization-associated edema. […] A key mediator and initiator of corneal vascularization may be vascular endothelial growth factor (VEGF).

HSV-1 [6] = test: HSV-1 infected cell cultures: infectious viral yield, cytopathic effects, cell-to-cell spread; type: cell-based
Description: FIG. 5 is a bar graph showing infectious viral yield for cell cultures infected with HSV-1 and treated with a vehicle (peg vehicle), peg-Arginase I, or different concentrations of acyclovir, according to an example embodiment of the present invention.
FIG. 6 is a series of images showing virus-mediated cytopathic effects on cell cultures treated as described in FIG. 5.
FIG. 7A is a series of images of HSV-plaques showing capacity for cell-to-cell spread following treatment with a vehicle (peg vehicle), peg-Arginase I, or acyclovir, according to an example embodiment of the present invention.
as §1

[7] = test system: surgically-induced corneal lesions; test: Surgically debrided cornea (corneal wound healing) rabbit eye model; type: in vivo
Description: FIG. 1A is a series of images of rabbit eyes with an 8 mm ([…]) region of cornea surgically debrided and treated with peg vehicle or peg-Arginase I, according to an example embodiment of the present invention.
In an exemplary embodiment, the present disclosure may be employed to treat ocular lesions, which may be caused by accidental or surgical trauma. Application of peg-Arginase I to a corneal lesion accelerates wound healing while reducing or eliminating ocular inflammation, neovascularization and inflammatory discharge.

For `Nc1nc2c(ncn2COCCO)c(=O)[nH]1` [acyclovir, reference compound], the “inhibition of drug-resistant viral replication” value [1] was “not functional against such strains, even at high doses”.

In the case of `O=c1[nH]c(=O)n([C@H]2C[C@H](O)[C@@H](CO)O2)cc1C(F)(F)F` [1% TFT, triflourothymidine, reference compound], the “dendritic or geographic ulceration and clinical appearance” value (HSV-1 [2]) is reported as “marked reduction in the presence of dendritic or geographic ulceration, and improved clinical appearance”.

In the case of `Nc1ccn(C[C@@H](CO)OCP(=O)(O)O)c(=O)n1` [cidofovir, reference compound], the “clinical symptoms / clinical disease presentation” value (Adenovirus Type 5) is reported as “did not prevent clinical disease presentation”.

B1: peg-Arginase I: a formulation of arginase I that has been pegylated; applied as topical ophthalmic eye drop (protein, UniProt P05089 1-322, looked up)
Arginase-1: MSAKSRTIGIIGAPFSKGQPRGGVEEGPTVLRKAGLLEKLKEQECDVKDYGDLPFADIPNDSPFQIVKNPRSVGKASEQLAGKVAEVKKNGRISLVLGGDHSLAIGSISGHARVHPDLGVIWVDAHTDINTPLTTTSGNLHGQPVSFLLKELKGKIPDVPGFSWVTPCISAKDIVYIGLRDVDPGEHYILKTLGIKYFSMTEVDRLGIGKVMEETLSYLLGRKKRPIHLSFDVDGLDPSFTPATGTPVVGGLTYREGLYITEEIYKTGLLSGLDIMEVNPSLGKTPEEVTRTVNTAVAITLACFGLAREGNHKPIDYLNPPK
modifications: PEGylated
notes: a formulation of arginase I that has been pegylated; applied as topical ophthalmic eye drop
With B1 the “corneal edema resulting in corneal clouding and epithelial defects” value [3] was “prevented the appearance of corneal edema”, the “extent and areas of neovascularization of the cornea” value ([3]; compared to peg-BSA treated controls) was “significantly reduced” and the “clinical symptoms / clinical disease presentation” value (Adenovirus Type 5) was “fewer clinical symptoms”. For the same molecule, the toxicity to cells (Adenovirus; Adenovirus infected cell cultures) was “no toxicity to cells”, the “Adenovirus-mediated cellular cytopathic effects” value (Adenovirus; vs peg-BSA control) was “prevents Adenovirus-mediated cellular cytopathic effects” and the “inhibition of drug-resistant viral replication” value [1] was “highly efficient at inhibiting drug-resistant viral replication”. For the same molecule, the “clinical presentation of disease” value (HSV-1 [2]; five days of treatment) was “statistically improved clinical presentation of disease”, the “infectious viral titers upon treatment” value (HSV-1 [2]; treatment begun after infection established (day three post infection titers matched)) was “barely detectable” and the “dendritic or geographic ulceration and clinical appearance” value (HSV-1 [2]) was “marked reduction in the presence of dendritic or geographic ulceration, and improved clinical appearance”. For the same molecule, the antiviral effects (HSV-1 [4]) was “antiviral effects of peg-Arginase I were also observed”, the “VEGF-mediated migration of primary vascular endothelial cells” value [5] was “prevents VEGF-mediated migration of primary vascular endothelial cells” and the “virus-associated cytopathic effects, viral transmission to uninfected cells, cell-to-cell spread” value (HSV-1 [6]; HSV-1 infected cell cultures) was “blocked virus-associated cytopathic effects, viral transmission to uninfected cells, and cell-to-cell spread”. The “inhibition of production of infectious virus” value (HSV-1 [6]; even at high multiplicities of infection (MOIs)) was “greater than 1000 fold”, the “effectiveness compared with acyclovir” value (HSV-1 [6]; infectious viral yield, HSV-1) was “at least as effective as high doses of a common anti-herpetic, acyclovir” and the “Calculated Times of Corneal Epithelium Closure” value (from here on “Calculated Times”) ([7]; 25% closure) was 14 h. For the same molecule, the “Calculated Times” value ([7]; 50% closure) was 30 h, the “Calculated Times” value ([7]; 75% closure) was 38 h and the “eyes clinically cured of all ocular parameters” value ([7]; by day six) was “all eyes clinically cured”. For the same molecule, the “time for 100% of eyes to reach clinical cure for epithelial defects relative to peg-vehicle” value ([7]; compared with peg-vehicle) was “two days faster”, the “Number of Eyes Clinically Cured for Area of Corneal Debridement” value (“Number … of Corneal Debridement” for short) ([7]; day 0) was 0/5 and the “Number of Eyes Clinically Cured of All Combined Ocular Clinical Conditions” value ([7]; day 0) was 0/5. For the same molecule, the “Number of Eyes Clinically Cured of Corneal Neovascularization” value (“Number … of Corneal Neovascularization” for short) ([7]; day 0) was 5/5 (100%), the “Number of Eyes Clinically Cured of Scleral Inflammation (Injection)” value (“Number of Eyes Clinically Cured … (Injection)” for short) ([7]; day 0) was 5/5 (100%) and the “Number … of Corneal Debridement” value ([7]; day 1) was 0/5. For the same molecule, the “Number of Eyes Clinically Cured of All Combined Ocular Clinical Conditions” value ([7]; day 1) was 0/5, the “Number … of Corneal Neovascularization” value ([7]; day 1) was 5/5 (100%) and the “Number of Eyes Clinically Cured … (Injection)” value ([7]; day 1) was 5/5 (100%). For the same molecule, the “Number … of Corneal Debridement” value ([7]; day 2) was 0/5, the “Number of Eyes Clinically Cured of All Combined Ocular Clinical Conditions” value ([7]; day 2) was 0/5 and the “Number … of Corneal Neovascularization” value ([7]; day 2) was 5/5 (100%). For the same molecule, the “Number of Eyes Clinically Cured … (Injection)” value ([7]; day 2) was 5/5 (100%), the “Number … of Corneal Debridement” value ([7]; day 3) was 3/5 (60%) and the “Number of Eyes Clinically Cured of All Combined Ocular Clinical Conditions” value ([7]; day 3) was 0/5. The “Number … of Corneal Neovascularization” value ([7]; day 3) was 5/5 (100%), the “Number of Eyes Clinically Cured … (Injection)” value ([7]; day 3) was 5/5 (100%) and the “Number … of Corneal Debridement” value ([7]; day 4) was 5/5 (100%). For the same molecule, the “Number of Eyes Clinically Cured of All Combined Ocular Clinical Conditions” value ([7]; day 4) was 4/5 (80%), the “Number … of Corneal Neovascularization” value ([7]; day 4) was 5/5 (100%) and the “Number of Eyes Clinically Cured … (Injection)” value ([7]; day 4) was 5/5 (100%). For the same molecule, the “Number … of Corneal Debridement” value ([7]; day 6) was 5/5 (100%), the “Number of Eyes Clinically Cured of All Combined Ocular Clinical Conditions” value ([7]; day 6) was 5/5 (100%) and the “Number … of Corneal Neovascularization” value ([7]; day 6) was 5/5 (100%). The “Number of Eyes Clinically Cured … (Injection)” value ([7]; day 6) was 5/5 (100%) and the “eyes exhibiting no symptomology from the surgically-induced trauma” value ([7]; day four) was 80%.
